From patent publication US20220073599A1 come the findings set out here.

For one experiment, the target named is Pig VEGF-A-121 (pig) (UniProt P49151). In words: SPR crossreactivity set-up, VEGF-A121-His captured by anti-His antibody, Fab injected, single cycle kinetics.
Experiment [1] addresses human VEGFA-121-His (human) (UniProt P15692). The experiment can be described thus: KinExA equilibrium titration in solution, VEGFA-121. A general note: In KinExA the mixture passes briefly over coated beads that capture the unbound partner.
Another experiment concerns the target human VEGFA-165 (human) (UniProt P15692). The experiment can be described thus: KinExA, VEGFA-165; set-up for VEGFA-165 not described.

Sequence of Pig VEGF-A-121 (pig) (P49151 other isoform, or with tags, fused parts or gaps limits assumed): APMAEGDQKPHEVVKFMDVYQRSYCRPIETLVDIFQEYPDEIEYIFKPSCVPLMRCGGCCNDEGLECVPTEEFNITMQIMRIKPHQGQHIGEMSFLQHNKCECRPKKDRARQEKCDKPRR
Sequence of human VEGFA-121-His (human) (P15692 other isoform, or with tags, fused parts or gaps): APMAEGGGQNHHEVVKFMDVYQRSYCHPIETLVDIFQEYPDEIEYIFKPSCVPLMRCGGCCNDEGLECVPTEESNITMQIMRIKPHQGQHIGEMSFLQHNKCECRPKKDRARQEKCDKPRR
Sequence of human VEGFA-165 (human) (P15692 other isoform, or with tags, fused parts or gaps limits assumed): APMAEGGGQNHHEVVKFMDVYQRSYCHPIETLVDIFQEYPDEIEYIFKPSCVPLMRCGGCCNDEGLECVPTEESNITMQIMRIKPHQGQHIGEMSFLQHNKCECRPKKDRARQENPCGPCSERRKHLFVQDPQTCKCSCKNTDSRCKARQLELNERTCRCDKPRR

B1: bispecific anti-VEGF-A/anti-ANG2 Fab fragment P1AD9820 (Fab, V domains shown)
VH: SEHLVESGGGLVKPGGSLRLSCATADFFEYDDMSWVRQAPGKGLEWVGSISPKGDHKYLNTKFIGRFTISRDDSKNTLYLQMNSLRAEDTAVYYCARDVGFFDWWGQGTLVTVSS
VL: AIYMHQEPSSLSASVGDRVTITCHGSYWLNSEVAWYQQKPGKAPKLLIFDGDFKVYEVPSRFSGSGSHEDYTLTISSLQPEDFATYYCQQYRYHPYTFGHGTKVEIKR
In the experiment with Pig VEGF-A-121 (pig), B1 returned a Kd of 2790 pM, a dissociation rate constant (koff) of 0.000499 s⁻¹, an on-rate constant (kon) of 179000 M⁻¹ s⁻¹ and a t1/2 of 23 min.

B2: Brolucizumab-analogue (scFv, INN chains, looked up, V domains shown)
VH: EVQLVESGGGLVQPGGSLRLSCTASGFSLTDYYYMTWVRQAPGKGLEWVGFIDPDDDPYYATWAKGRFTISRDNSKNTLYLQMNSLRAEDTAVYYCAGGDHNSGWGLDIWGQGTLVTVSS
VL: EIVMTQSPSTLSASVGDRVIITCQASEIIHSWLAWYQQKPGKAPKLLIYLASTLASGVPSRFSGSGSGAEFTLTISSLQPDDFATYYCQNVYLASTNGANFGQGTKLTVL
modifications: scFv
With B2, the Kd amounted to 2 pM in experiment [1] and 1 pM with human VEGFA-165 (human).

In general, Kd refers to the concentration at which binding is half-saturated. A low value points to higher affinity. By koff is commonly meant the rate constant with which the complex falls apart. The low end stands for a long-lived complex, the high end for a short-lived complex. As usually defined, the kon is a measure of how fast the partners come together.
